Literature values in US10131637B2, “Anti-PCSK9 compounds and methods for the treatment and/or prevention of cardiovascular diseases” (Shifa Biomedical Corporation, priority 2013, dated 2018).

Target: T1, PCSK9 (Homo sapiens, UniProt Q8NBP7)
T1 construct: slashed LDL levels by more than 60% in clinical trial; host or cells: patients in a clinical trial (endogenous circulating PCSK9)
Conditions: single injection, clinical trial

REGN727: Regeneron/Sanofi monoclonal antibody blocking PCSK9
reduction of LDL levels: more than 60%
